From US9657062B2, “Ghrelin analogues” (Zealand Pharma A/S, priority 2012, dated 2017)
*1 amine or outer side, *2 acyl side, *3 side chain or, on linkers, in order; H or OH if unused. [ ]: non-standard residue; d: D form. The star is where a group is joined. Cmp = 4-carboxymethyl-piperidine, O=C(CC1CCN([*:1])CC1)[*:2]; Achc(cis-1,4) = O=C([C@H]1CC[C@@H](N[*:1])CC1)[*:2]; Octanoyl = CCCCCCCC(=O)*; Octyl = CCCCCCCC*

Key:
[1] = test system: normal chow-fed C57BL/6J male mice; test: Effect on food intake in normal mice (HM-2 automated monitoring); assay type: in vivo, mouse; settings: for Accumulated FI at 6h: 300 nmol/kg s.c. once, light phase 0-6 h, modified protocol (food access re-opened 2 h after dosing)
Method: Normal chow-fed C57BL/6J male mice were used. The mice were kept in an automated food- and water-intake monitoring system (HM-2) which allows automated on-line measurements of accumulated food intake (FI) and other parameters. Food intake was monitored by the HM-2 system up to 24 h after dosing. The mice were kept 6 per cage, and each dosing group consisted of 6 animals.
In the initial experimental set-up with ghrelin as test compound, animals were allowed free access to food directly after treatment, and the resulting data for food intake are shown in FIG. 1A herein (vide infra).
In order to further investigate the “duration of action” of ghrelin and the other test compounds a new protocol was defined. In the modified protocol the gate to the food chambers was closed prior to dosing with vehicle or test compound and was re-opened 2 hours thereafter. The resulting data for food intake following dosing with ghrelin or vehicle are summarized in FIG. 1B (vide infra), while the corresponding data for food intake following dosing with each of the of the other four test compounds. (Compound 16, 22, 23 or 43 of the invention) or with vehicle are summarized in FIG. 2A (data for monitoring up to 6 hours after dosing) and FIG. 2B (data for monitoring up to 24 hours after dosing).

[2] = target: human growth hormone secretagogue receptor type 1a (human, UniProt Q92847 1-366); test: cell-based or functional assay
human growth hormone secretagogue receptor type 1a, sequence (Q92847 whole entry): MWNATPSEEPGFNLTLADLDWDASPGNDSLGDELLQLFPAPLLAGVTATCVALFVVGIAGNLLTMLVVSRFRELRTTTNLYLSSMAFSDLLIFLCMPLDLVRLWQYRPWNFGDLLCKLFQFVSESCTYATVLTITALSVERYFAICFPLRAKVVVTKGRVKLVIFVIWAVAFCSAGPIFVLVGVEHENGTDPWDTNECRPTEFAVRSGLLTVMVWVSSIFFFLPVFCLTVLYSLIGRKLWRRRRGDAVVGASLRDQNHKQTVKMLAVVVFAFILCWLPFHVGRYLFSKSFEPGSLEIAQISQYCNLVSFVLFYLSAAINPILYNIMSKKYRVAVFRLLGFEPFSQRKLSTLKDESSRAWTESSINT

CCCCCCCC(=O)OC[C@H](NC(=O)[C@H](CO)NC(=O)CN)C(=O)N[C@@H](Cc1ccccc1)C(=O)N[C@@H](CC(C)C)C(=O)N[C@@H](CO)C(=O)N1CCC[C@H]1C(=O)N[C@@H](CCC(=O)O)C(=O)N[C@@H](Cc1c[nH]cn1)C(=O)N[C@@H](CCC(N)=O)C(=O)N[C@@H](CCCNC(=N)N)C(=O)N[C@H](C(=O)N[C@@H](CCC(N)=O)C(=O)N[C@@H](CCC(N)=O)C(=O)N[C@@H](CCCNC(=N)N)C(=O)N[C@@H](CCCCN)C(=O)N[C@@H](CCC(=O)O)C(=O)N[C@@H](CO)C(=O)N[C@@H](CCCCN)C(=O)N[C@@H](CCCCN)C(=O)N1CCC[C@H]1C(=O)N1CCC[C@H]1C(=O)N[C@@H](C)C(=O)N[C@@H](CCCCN)C(=O)N[C@@H](CC(C)C)C(=O)N[C@@H](CCC(N)=O)C(=O)N1CCC[C@H]1C(=O)N[C@@H](CCCNC(=N)N)C(=O)O)C(C)C [Compound 1, reference compound] was tested, and the “Effect on food intake (FI)” value ([1]; 300 nmol/kg s.c., access to food delayed for 2 h after administration (FIG. 1B)) was “essentially lost” and the “Food intake (FI) compared to PBS treated controls” value ([1]; 300 nmol/kg s.c., free access to food immediately after dosing (FIG. 1A)) was “increased FI”.

For CCCCCCCCCCCCCCCC(=O)NCCCC[C@H](NC(=O)[C@H](CO)NC(=O)[C@H](CCC(=O)O)NC(=O)[C@H](CCCCN)NC(=O)[C@H](CCCNC(=N)N)NC(=O)[C@H](CCC(N)=O)NC(=O)[C@H](CCC(N)=O)NC(=O)[C@@H](NC(=O)[C@H](CCCNC(=N)N)NC(=O)[C@H](CCC(N)=O)NC(=O)[C@H](Cc1c[nH]cn1)NC(=O)[C@H](CCC(=O)O)NC(=O)[C@@H]1CCCN1C(=O)[C@H](CO)NC(=O)[C@H](CC(C)C)NC(=O)[C@H](Cc1ccccc1)NC(=O)[C@H](COCCCCCCCC)NC(=O)[C@H](CO)NC(=O)[C@@H]1CCCN1)C(C)C)C(=O)N[C@@H](CCCCN)C(=O)N1CCC[C@H]1C(=O)N1CCC[C@H]1C(=O)N[C@@H](C)C(=O)N[C@@H](CCCCN)C(=O)N[C@@H](CC(C)C)C(=O)N[C@@H](CCC(N)=O)C(=O)N1CCC[C@H]1C(=O)N[C@@H](CCCNC(=N)N)C(=O)O [Compound 16], the “Accumulated FI at 6h” value [1] was 0.65 ± 0.1 g.

For CCCCCCCC(=O)NC[C@H](NC(=O)[C@H](CO)NC(=O)[C@@H]1CCCN1)C(=O)N[C@@H](Cc1ccccc1)C(=O)N[C@@H](CC(C)C)C(=O)N[C@@H](CO)C(=O)N1CCC[C@H]1C(=O)N[C@@H](CCC(=O)O)C(=O)N[C@@H](Cc1c[nH]cn1)C(=O)N[C@@H](CCC(N)=O)C(=O)N[C@@H](CCCNC(=N)N)C(=O)N[C@H](C(=O)N[C@@H](CCC(N)=O)C(=O)N[C@@H](CCC(N)=O)C(=O)N[C@@H](CCCNC(=N)N)C(=O)N[C@@H](CCCCN)C(=O)N[C@@H](CCC(=O)O)C(=O)N[C@@H](CO)C(=O)N[C@@H](CCCCN)C(=O)N[C@@H](CCCCN)C(=O)N1CCC[C@H]1C(=O)N1CCC[C@H]1C(=O)N[C@@H](C)C(=O)N[C@@H](CCCCN)C(=O)N[C@@H](CC(C)C)C(=O)N[C@@H](CCC(N)=O)C(=O)N1CCC[C@H]1C(=O)N[C@@H](CCCNC(=N)N)C(N)=O)C(C)C [Compound 22], the “Accumulated FI at 6h” value [1] was 1.87 ± 0.23 g and the “Effects on FI during the dark period” value ([1]; 300 nmol/kg s.c., modified protocol, 0-24 h monitoring (FIG. 2B)) was “significant effects”.

B1: H-[cACC]-S(O-octyl)-FLSPEHQRVQQRKESKKPPAKLQPR-NH2 (peptide)
peptide: H-[Achc(cis-1,4)]S(Octyl)FLSPEHQRVQQRKESKKPPAKLQPR-NH2
SMILES: CCCCCCCCOC[C@H](NC(=O)[C@H]1CC[C@@H](N)CC1)C(=O)N[C@@H](Cc1ccccc1)C(=O)N[C@@H](CC(C)C)C(=O)N[C@@H](CO)C(=O)N1CCC[C@H]1C(=O)N[C@@H](CCC(=O)O)C(=O)N[C@@H](Cc1c[nH]cn1)C(=O)N[C@@H](CCC(N)=O)C(=O)N[C@@H](CCCNC(=N)N)C(=O)N[C@H](C(=O)N[C@@H](CCC(N)=O)C(=O)N[C@@H](CCC(N)=O)C(=O)N[C@@H](CCCNC(=N)N)C(=O)N[C@@H](CCCCN)C(=O)N[C@@H](CCC(=O)O)C(=O)N[C@@H](CO)C(=O)N[C@@H](CCCCN)C(=O)N[C@@H](CCCCN)C(=O)N1CCC[C@H]1C(=O)N1CCC[C@H]1C(=O)N[C@@H](C)C(=O)N[C@@H](CCCCN)C(=O)N[C@@H](CC(C)C)C(=O)N[C@@H](CCC(N)=O)C(=O)N1CCC[C@H]1C(=O)N[C@@H](CCCNC(=N)N)C(N)=O)C(C)C
For B1, the “EC50 (nM); Ca2+ induction in HEK293 cells stably expressing the human ghrelin receptor” value (shortened to “EC50 (nM); Ca2+ induction”) [2] was 0.271 nM.

B2: H-PS-S(O-octyl)-FLSPEHSR-NH2 (peptide)
peptide: H-PSS(Octyl)FLSPEHSR-NH2
SMILES: CCCCCCCCOC[C@H](NC(=O)[C@H](CO)NC(=O)[C@@H]1CCCN1)C(=O)N[C@@H](Cc1ccccc1)C(=O)N[C@@H](CC(C)C)C(=O)N[C@@H](CO)C(=O)N1CCC[C@H]1C(=O)N[C@@H](CCC(=O)O)C(=O)N[C@@H](Cc1c[nH]cn1)C(=O)N[C@@H](CO)C(=O)N[C@@H](CCCNC(=N)N)C(N)=O
With B2 the “EC50 (nM); Ca2+ induction” value [2] was 0.44 nM.

B3: H-FS-S(O-octanoyl)-FLSPEHQRVQQRKESKKPPAKLQPR-OH (peptide)
peptide: H-FSS(Octanoyl)FLSPEHQRVQQRKESKKPPAKLQPR-OH
SMILES: CCCCCCCC(=O)OC[C@H](NC(=O)[C@H](CO)NC(=O)[C@@H](N)Cc1ccccc1)C(=O)N[C@@H](Cc1ccccc1)C(=O)N[C@@H](CC(C)C)C(=O)N[C@@H](CO)C(=O)N1CCC[C@H]1C(=O)N[C@@H](CCC(=O)O)C(=O)N[C@@H](Cc1c[nH]cn1)C(=O)N[C@@H](CCC(N)=O)C(=O)N[C@@H](CCCNC(=N)N)C(=O)N[C@H](C(=O)N[C@@H](CCC(N)=O)C(=O)N[C@@H](CCC(N)=O)C(=O)N[C@@H](CCCNC(=N)N)C(=O)N[C@@H](CCCCN)C(=O)N[C@@H](CCC(=O)O)C(=O)N[C@@H](CO)C(=O)N[C@@H](CCCCN)C(=O)N[C@@H](CCCCN)C(=O)N1CCC[C@H]1C(=O)N1CCC[C@H]1C(=O)N[C@@H](C)C(=O)N[C@@H](CCCCN)C(=O)N[C@@H](CC(C)C)C(=O)N[C@@H](CCC(N)=O)C(=O)N1CCC[C@H]1C(=O)N[C@@H](CCCNC(=N)N)C(=O)O)C(C)C
In the case of B3, the “EC50 (nM); Ca2+ induction” value [2] is reported as 0.714 nM.

B4: H-PS-S(O-octyl)-FLSPEHSRVSSR-NH2 (peptide)
peptide: H-PSS(Octyl)FLSPEHSRVSSR-NH2
SMILES: CCCCCCCCOC[C@H](NC(=O)[C@H](CO)NC(=O)[C@@H]1CCCN1)C(=O)N[C@@H](Cc1ccccc1)C(=O)N[C@@H](CC(C)C)C(=O)N[C@@H](CO)C(=O)N1CCC[C@H]1C(=O)N[C@@H](CCC(=O)O)C(=O)N[C@@H](Cc1c[nH]cn1)C(=O)N[C@@H](CO)C(=O)N[C@@H](CCCNC(=N)N)C(=O)N[C@H](C(=O)N[C@@H](CO)C(=O)N[C@@H](CO)C(=O)N[C@@H](CCCNC(=N)N)C(N)=O)C(C)C
B4 was tested, and the “EC50 (nM); Ca2+ induction” value [2] was 0.467 nM.

B5: H-PS-S(O-octyl)-FLSPEHSRVSSRKESKKPPAKLSPR-NH2 (peptide)
peptide: H-PSS(Octyl)FLSPEHSRVSSRKESKKPPAKLSPR-NH2
SMILES: CCCCCCCCOC[C@H](NC(=O)[C@H](CO)NC(=O)[C@@H]1CCCN1)C(=O)N[C@@H](Cc1ccccc1)C(=O)N[C@@H](CC(C)C)C(=O)N[C@@H](CO)C(=O)N1CCC[C@H]1C(=O)N[C@@H](CCC(=O)O)C(=O)N[C@@H](Cc1c[nH]cn1)C(=O)N[C@@H](CO)C(=O)N[C@@H](CCCNC(=N)N)C(=O)N[C@H](C(=O)N[C@@H](CO)C(=O)N[C@@H](CO)C(=O)N[C@@H](CCCNC(=N)N)C(=O)N[C@@H](CCCCN)C(=O)N[C@@H](CCC(=O)O)C(=O)N[C@@H](CO)C(=O)N[C@@H](CCCCN)C(=O)N[C@@H](CCCCN)C(=O)N1CCC[C@H]1C(=O)N1CCC[C@H]1C(=O)N[C@@H](C)C(=O)N[C@@H](CCCCN)C(=O)N[C@@H](CC(C)C)C(=O)N[C@@H](CO)C(=O)N1CCC[C@H]1C(=O)N[C@@H](CCCNC(=N)N)C(N)=O)C(C)C
For B5, the “EC50 (nM); Ca2+ induction” value [2] was 0.48 nM.

B6: H-SS-S(O-octanoyl)-FLSPEHQRVQQRKESKKPPAKLQPR-OH (peptide)
peptide: H-SSS(Octanoyl)FLSPEHQRVQQRKESKKPPAKLQPR-OH
SMILES: CCCCCCCC(=O)OC[C@H](NC(=O)[C@H](CO)NC(=O)[C@@H](N)CO)C(=O)N[C@@H](Cc1ccccc1)C(=O)N[C@@H](CC(C)C)C(=O)N[C@@H](CO)C(=O)N1CCC[C@H]1C(=O)N[C@@H](CCC(=O)O)C(=O)N[C@@H](Cc1c[nH]cn1)C(=O)N[C@@H](CCC(N)=O)C(=O)N[C@@H](CCCNC(=N)N)C(=O)N[C@H](C(=O)N[C@@H](CCC(N)=O)C(=O)N[C@@H](CCC(N)=O)C(=O)N[C@@H](CCCNC(=N)N)C(=O)N[C@@H](CCCCN)C(=O)N[C@@H](CCC(=O)O)C(=O)N[C@@H](CO)C(=O)N[C@@H](CCCCN)C(=O)N[C@@H](CCCCN)C(=O)N1CCC[C@H]1C(=O)N1CCC[C@H]1C(=O)N[C@@H](C)C(=O)N[C@@H](CCCCN)C(=O)N[C@@H](CC(C)C)C(=O)N[C@@H](CCC(N)=O)C(=O)N1CCC[C@H]1C(=O)N[C@@H](CCCNC(=N)N)C(=O)O)C(C)C
With B6 the “EC50 (nM); Ca2+ induction” value [2] was 0.385 nM.

B7: H-Cmp-S(O-octanoyl)-FLSPEHQRVQQRKESKKPPAKLQPR-OH (peptide)
peptide: H-[Cmp]S(Octanoyl)FLSPEHQRVQQRKESKKPPAKLQPR-OH
SMILES: CCCCCCCC(=O)OC[C@H](NC(=O)CC1CCNCC1)C(=O)N[C@@H](Cc1ccccc1)C(=O)N[C@@H](CC(C)C)C(=O)N[C@@H](CO)C(=O)N1CCC[C@H]1C(=O)N[C@@H](CCC(=O)O)C(=O)N[C@@H](Cc1c[nH]cn1)C(=O)N[C@@H](CCC(N)=O)C(=O)N[C@@H](CCCNC(=N)N)C(=O)N[C@H](C(=O)N[C@@H](CCC(N)=O)C(=O)N[C@@H](CCC(N)=O)C(=O)N[C@@H](CCCNC(=N)N)C(=O)N[C@@H](CCCCN)C(=O)N[C@@H](CCC(=O)O)C(=O)N[C@@H](CO)C(=O)N[C@@H](CCCCN)C(=O)N[C@@H](CCCCN)C(=O)N1CCC[C@H]1C(=O)N1CCC[C@H]1C(=O)N[C@@H](C)C(=O)N[C@@H](CCCCN)C(=O)N[C@@H](CC(C)C)C(=O)N[C@@H](CCC(N)=O)C(=O)N1CCC[C@H]1C(=O)N[C@@H](CCCNC(=N)N)C(=O)O)C(C)C
With B7 the “EC50 (nM); Ca2+ induction” value [2] was 0.558 nM.
